B1: CMB7-10 (Fc fusion)
chain: QVQLVESGGGLVQAGESLRLSCAASGSIFSINAMAWYRQAPGKQRELVAAITSGGSTKYADSVKGRFTISRDNAKNTVYLQMNSLKPEDTAVYYCAAMDRTTLEYDYWGQGTLVTVSS
notes: Tested as VHH fused to human Fc; also called VHH-Fc; not shown: human Fc fused to the VHH
B2: CMB7-19 (Fc fusion)
chain: QVQLVESGGGLVQAGGSLGLSCAASESIFSYNAMGWFRQAPGKQRELVAAITSGGSIKYADSVKGRFTISRDNAKNTVYLQMNSLKPEDRGVYYCAAMDRTTLEYDYWGQGTLVTVSS
notes: as for B1
B3: CMB7-11 (Fc fusion)
chain: QVQLVESGGGLVQAGGSLRLSCAASGSIFSISAMGWFRQAPGNQREMVAAITKGGSVNYADSVKGRFTITRDNAKNTVYLQMNSLKPEDTAVYYCAAAVGAPFEYDYWGQGTQVTVSS
notes: as for B1
B4: CMB7-12 (Fc fusion)
chain: QVQLVESGGGLVQPGGSLRLACAASGSIFSINVMGWYRQAPGKQREYVASVSRGGSVKYVDSVKGRFTVSRDNAKNTMYLEMNSLKPEDTAIYFCGAETKMGRGFDSWGQGTQVTVSS
notes: as for B1
B5: CMB7-18 (Fc fusion)
chain: QVQLVESGGGLVQAGGSLRLSCAASGSIFSINAMGWHRQGPGDQRELVAAITSGGSTKYVDSVKGRFTISRDNAKNTVYLQMNSLKPEDTGVYYCAAMGGSYEYDYWGQGTQVTVSS
notes: as for B1
B6: CMB7-6 (Fc fusion)
chain: QVQLVESGGGLVQPGGSLRLSCAASGSIFSINVMGWYRQAPGKQRELVATITSGGSVNYADSVKGRFTISRDNANNTVYLQMNTLKPEDTAVYYCTADQLGPLGLLSPTIYWGQGTLVTVSS
notes: also called VHH 36; VHH-Fc; not shown: human Fc fused to the VHH
B7: CMB7-20 (Fc fusion)
chain: QVQLVESGGGLVQPGGSLRLSCAASGSIFSMNVMGWYRQAPGKQRELVATITSGGSTNYADSVKGRFTISRDNANNTVYLQMNSLKPEDTAVYYCTGDQLGPLGTFSPIVYWGQGTQVTVSS
notes: as for B1
B8: CMB7-23 (Fc fusion)
chain: QVQLVESGGGLVQPGGSLRLSCAASGSDFTINVMGWYRQAPGKQRELVATVTSGGSLNYADSVKGRFTISRDNAKNTVYLQMNSLKPEDTAVYYCTADQFGPLGHLSPIIYWGQGTQVTVSS
notes: as for B1
B9: CMB7-22 (Fc fusion)
chain: QVQLVESGGGLVQAGGSLRLSCAASGSIFSINAMGWFRQAPGKQRELVAAITSGGSTNYAVSVKGRFTISSDKAKNTVYLQMNSLKPEDTAVYYCAAARGEPFEYEYWGQGTLVTVSS
notes: as for B1
B10: CMB7-7 (Fc fusion)
chain: QVQLVESGGGLVQAGGSLRLSCAASGSIFSINAMGWFRQAPGKQRELAAAITSGGSTKYADSVKGRFTISRDNAKNTVYLQMNRLKPEDTGVYYCAAATGEPFEYNYWGQGTQVTVSS
notes: as for B1
B11: CMB7-8 (Fc fusion)
chain: QVQLVESGGGLVQAGGSLRLSCAASGNIFSVNAMGWFRQAPGKQRELVAAITSGGSIRYVDSVKGRFTISRDNAKNTVYLQMNSLKPEDTAVYYCAAARGEPYEYDYWGQGTLVTVSS
notes: as for B1
B12: CMB7-9 (Fc fusion)
chain: QVQLVESGGGLVQPGGSLRLSCAASGSIFSINAMGWYRQAPGKQRELVASITNGGSTKYDDSVKGRFTISRDNAKNTVYLQMNSLKPEDTAVYYCAAASLVVGGTWEYDTWGQGTLVTVSS
notes: as for B1

Each binder was assayed against T1, 人Nectin-4 (human, UniProt Q96NY8 32-349) (assay: BLI, VHH-Fc on anti-hIgG Fc probe, human Nectin-4 as analyte).
T1 construct: construct not described; also called human Nectin-4; PVRL4
T1 sequence (looked up): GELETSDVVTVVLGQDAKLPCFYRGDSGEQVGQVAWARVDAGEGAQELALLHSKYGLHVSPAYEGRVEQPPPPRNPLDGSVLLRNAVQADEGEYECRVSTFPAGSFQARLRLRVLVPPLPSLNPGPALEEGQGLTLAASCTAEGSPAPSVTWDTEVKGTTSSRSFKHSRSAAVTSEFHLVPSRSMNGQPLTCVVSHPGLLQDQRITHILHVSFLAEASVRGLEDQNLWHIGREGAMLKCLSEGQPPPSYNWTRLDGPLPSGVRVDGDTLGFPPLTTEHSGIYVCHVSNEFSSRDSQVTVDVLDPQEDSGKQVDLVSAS
Parameters: 响应: unit not given here

Kd	响应	Binder
958 pM	0.891	B1
–	0.867	B2
–	0.94	B3
–	0.97	B4
810 pM	0.729	B5
–	0.835	B6
–	0.783	B7
–	0.877	B8
–	0.841	B9
–	0.972	B10
–	0.915	B11
530 pM	0.891	B12
